The values that follow come from PMC4686002 (2015).

The target of data set [1] is T1, FtsZ C-terminal tail peptide C-terminal tail peptide (Escherichia coli, UniProt P0A9A6).
T1 chain: KEPDYLDIPAFLRKQAD
The data set can be described thus: ITC.

Data set [2] concerns the molecule itself. The data set can be described thus: analytical ultracentrifugation (sedimentation velocity).

B1: ZapC (protein)
chain: not shown
A word on the Kd: it is a measure of binding affinity in units of concentration. In the case of B1, the Kd in data set [1] was 32 µM; in data set [2] it was about 30 µM.
